Measurements from the supplement of paper PMC10724198.
± gives the standard deviation of the averaged measurements.

Tested on: Saccharomyces cerevisiae
Test: protein stability index of tFT-peptide fusion (C-terminal peptide) (PSI (0-1 scale)); higher = more stable (slower turnover)
Settings: genetic background: wild type; temperature: 30 C
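Note: PSI is a weighted mean of sequencing reads over stability bins, variants kept only with over 10 reads, mCherry proximal and sfGFP distal, peptide attached via GGGS linker.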

Sequence | protein stability index
KKTVKNNQNNTD | 0.654 ± 0.041
STAPQDPARPSE | 0.707 ± 0.028
GCSCFLAGAFVL | 0.732 ± 0.038
APPPAPSPPLAP | 0.69 ± 0.027
GNDICLVGARVV | 0.6696 ± 0.0059
SHTNVILQDVTI | 0.655 ± 0.087
VAGLARVSLHGF | 0.6746 ± 0.0052
DMPIVVDGSLVR | 0.684 ± 0.027
QQVRHNVKRVVL | 0.7222 ± 0.0025
GGAEACSDRGGG | 0.704 ± 0.018
AWGGRVGWPKRR | 0.734 ± 0.052
CGGSARAGVVFL | 0.699 ± 0.066
VLFDGSWSGSYL | 0.741 ± 0.15
VWNLELFFTLAT | 0.6331 ± 0.001
WGCFPGVVMGVS | 0.594 ± 0.02
ARGSRNHRGAGA | 0.738 ± 0.067
LLPFLPPPPCPP | 0.72 ± 0.022
VGAGAGGGGWVL | 0.782 ± 0.017
DRSRSPCPCSSP | 0.6898 ± 0.0022
ESLSAVAAGRGM | 0.689 ± 0.024
PSPPPPSLPPPP | 0.67 ± 0.15
TNNKKTRNHTSK | 0.704 ± 0.03
YYDWPGQRFSEE | 0.67 ± 0.035
KKKKNNKKKKIE | 0.702 ± 0.015
LVGGGGGVGSLV | 0.628 ± 0.042
IKIILLEKQGSK | 0.697 ± 0.033

Sequence | protein stability index
FLTVDGKLMRGP | 0.699 ± 0.021
PLAPPFSPPPPP | 0.645 ± 0.0082
VWGVCAVFGCAG | 0.644 ± 0.12
KKSNEKERATQQ | 0.708 ± 0.046
LVGRAITTLPPV | 0.66 ± 0.037
PLPPRLPSPPSS | 0.742 ± 0.044
KGGWGMRGVRGG | 0.672 ± 0.0046
NAGNDVFSLDIC | 0.683 ± 0.034
NTNSTRSDNVFD | 0.622 ± 0.011
KSSSVRQGWEGC | 0.728 ± 0.081
CSLSLPAFSAPS | 0.669 ± 0.04
TRPIGSPPSPAK | 0.702 ± 0.017
VLPGCFSISAPP | 0.7038 ± 0.0062
SCGYRGSSAFSF | 0.62 ± 0.2
GVCQSEKSARGI | 0.664 ± 0.05
RRNLSVSKRKWP | 0.689 ± 0.014
SPTRNLPPFPPP | 0.723 ± 0.054
RVSYLLPFCSSV | 0.762 ± 0.11
PSPPTPSPPPPP | 0.712 ± 0.062
RFQWAFMSWSEP | 0.823 ± 0.064
SSKLFVVLPVSR | 0.599 ± 0.028
RGPRWETVSSCM | 0.682 ± 0.027
PPPRPPSPPPPS | 0.699 ± 0.035
HNKSGEKKKKEA | 0.697 ± 0.0076
AQLGQTCDRDGM | 0.79 ± 0.17
HPAPNPGFHFDR | 0.733 ± 0.065

Sequence | protein stability index
RRRGRAEREPSS | 0.689 ± 0.05
PPPSRLSPVICP | 0.612 ± 0.01
PYWPLLLTNCQL | 0.734 ± 0.063
PHPPPAPDAPCV | 0.683 ± 0.036
YPPPPPSPPSTV | 0.722 ± 0.027
CVAGHPPASPPP | 0.712 ± 0.059
ARSALFRCGSIA | 0.678 ± 0.02
SSPSPASSPPPP | 0.677 ± 0.057
NSVMSRGCGNRG | 0.626 ± 0.044
MCVGSLMHKLRW | 0.6988 ± 0.0043
VRRILLGPPGRD | 0.653 ± 0.085
AVVTVVDRVVRE | 0.594 ± 0.032
LVLFFPMLRIRI | 0.515 ± 0.041
PPPSPPPQPHRP | 0.665 ± 0.018
LGVGGRGVVPGA | 0.7 ± 0.031
PLSPSAAPSAPS | 0.737 ± 0.1
RAREFRSRNIGD | 0.74 ± 0.0058
RCRRTTFIELKL | 0.595 ± 0.048
ALSPPSPTPASA | 0.694 ± 0.049
RSGGGVARRSYR | 0.662 ± 0.013
GIGVVVLGGCTR | 0.706 ± 0.056
VLPTHCPPPSSR | 0.715 ± 0.017
PHPTLATPPRRR | 0.667 ± 0.096
KKSVDKNKEIKL | 0.681 ± 0.12
VVCSSGFVSDPG | 0.5582 ± 0.0049
GGGGHMGGRLVK | 0.692 ± 0.039

Sequence | protein stability index
SSTERLELERMS | 0.705 ± 0.021
GWRSGGVYDGNI | 0.6572 ± 0.0027
NIKKLSHRTRRI | 0.857 ± 0.2
SGCGVRFLLCRL | 0.801 ± 0.065
RAPFEGLRCRTG | 0.66 ± 0.033
PRPLLPPPPLLA | 0.629 ± 0.083
ISALYVPGILSK | 0.6 ± 0.018
CTRRACDVRAVL | 0.699 ± 0.025
SCPSLPPPPPCL | 0.735 ± 0.04
LLFCMGSCGPVR | 0.624 ± 0.027
HPPSSSHTQPPR | 0.683 ± 0.014
FKIFSGLVTLGG | 0.7337 ± 0.0036
PLSTCLAARCPL | 0.725 ± 0.085
VGVSWSMYCANW | 0.631 ± 0.11
PPHAPLPPPTPP | 0.634 ± 0.037
TIRFWRSIFPHA | 0.728 ± 0.051
FLPQCLGSNFHL | 0.725 ± 0.016
PLFGLQTPTLHR | 0.712 ± 0.057
FRDEVLGSGVGS | 0.65 ± 0.017
KHRKSKEIRTAR | 0.6844 ± 0.0065
SLRESTPFCSRP | 0.553 ± 0.18
PVLCLRMQVLSK | 0.532 ± 0.032
KIKTTKKIKKKK | 0.681 ± 0.032
PARPLSRPPLPP | 0.72 ± 0.052
PRIPPLRPPPPA | 0.6649 ± 0.0047
PPHPGALPPAAA | 0.631 ± 0.035

Sequence | protein stability index
SRTWGDVVSSGT | 0.715 ± 0.0099
HTRSPVPPPPPS | 0.657 ± 0.0019
CVQCRRPSEWLV | 0.698 ± 0.033
PPSLTPPFSPLL | 0.703 ± 0.027
PLFAYCLIFPML | 0.533 ± 0.018
DIWEFYNNLYSS | 0.719 ± 0.013
PPPRVHPCHPPC | 0.678 ± 0.031
CTCSGELSLRGV | 0.684 ± 0.011
RRGAVGAAGLKG | 0.68884 ± 7e-05
KRKDGVTAGVEG | 0.712 ± 0.017
LRLLPRIVSPSV | 0.6 ± 0.022
LCSLSLCSYSIF | 0.6 ± 0.0053
SLPQYPSGPTLT | 0.709 ± 0.029
ALKLVGSVWFGG | 0.676 ± 0.15
CQHPLRPRCLND | 0.6724 ± 0.0048
GRWSDSSVVTLG | 0.679 ± 0.018
ACSSGGVGWGSV | 0.66 ± 0.034
TCSSQMSSNFRF | 0.638 ± 0.033
RPLLPYHPTRFD | 0.721 ± 0.048
LGRGGGGPLSGG | 0.717 ± 0.041
GSGVVVEGFLPD | 0.65 ± 0.021
TYRLSHFFKILP | 0.566 ± 0.013
SALGPVLCRGSY | 0.675 ± 0.067
PASIVPPPPVPL | 0.777 ± 0.13
DVRYQSLRRSGF | 0.725 ± 0.028
ADWGLLVNRSHH | 0.725 ± 0.084

Sequence | protein stability index
GGGRGLRCNGLG | 0.738 ± 0.1
PPPPLPPSSPPL | 0.751 ± 0.027
LGGRWVLGVRGV | 0.694 ± 0.029
CHGCSGFSYAPS | 0.669 ± 0.039
QWGRGGRHVTDI | 0.669 ± 0.038
PPSPAGPLPSPA | 0.686 ± 0.021
RKVRRTRNSEGE | 0.726 ± 0.011
QARQMEIRRLQT | 0.628 ± 0.047
FPPPPYPEFYPC | 0.798 ± 0.077
KKKELLTKKQKD | 0.637 ± 0.021
WFLCWGWGCGGA | 0.673 ± 0.08
FKFCLRSESSSE | 0.66 ± 0.085
SSCSDLTKRLQQ | 0.669 ± 0.054
PPPAASCLLLPL | 0.699 ± 0.028
KGKKRKNEKNKR | 0.691 ± 0.0089
VTVDLGCRATGE | 0.675 ± 0.067
PAPPPPPPTPPP | 0.646 ± 0.039
QTKAGKRKEKRE | 0.72 ± 0.12
RRRVWIQQRRKI | 0.5481 ± 0.0053
FRGTLRFYRPVN | 0.696 ± 0.016
RHTPPTTPLSLL | 0.701 ± 0.096
DEIRGERETKGR | 0.656 ± 0.036
GRANLAPVPPPR | 0.685 ± 0.013
SGVKKGRSEGKR | 0.629 ± 0.051
PADLCPPGSLSP | 0.683 ± 0.01
GSGVSDWRCFEG | 0.627 ± 0.071

Sequence | protein stability index
SMVRYNDFPRPL | 0.689 ± 0.081
WELPNRANDLSH | 0.769 ± 0.11
GGLWAAAGKARV | 0.692 ± 0.026
STPLRNLEITIA | 0.679 ± 0.15
SGGGCVYRGGRG | 0.633 ± 0.015
RPQHSPSVLVSY | 0.5884 ± 0.005
LSSFHCIVTVKD | 0.652 ± 0.028
KKVKNQGLILRW | 0.673 ± 0.035
PSAFPAPPLRCS | 0.686 ± 0.027
QTSWLKKTIKRE | 0.678 ± 0.072
VRRMLSSLIEGH | 0.619 ± 0.0072
GACHNVGVGPLG | 0.67 ± 0.024
FSARCGGGLDWS | 0.722 ± 0.038
RPRVAVPHTSLP | 0.714 ± 0.069
GRASAGVLLCDG | 0.659 ± 0.028
QKKKKKRNDKTQ | 0.71 ± 0.049
RTNNIAKNSKNR | 0.713 ± 0.058
SPLNLRIPGAPT | 0.675 ± 0.034
WEWLQAKCFLSQ | 0.688 ± 0.086
PFLLPPLPPGPL | 0.706 ± 0.062
VLLPRIRPSYSL | 0.674 ± 0.045
QEPARPTGPGQS | 0.628 ± 0.019
NKRSNIKVSDQR | 0.691 ± 0.03
SEGCPILALVKP | 0.638 ± 0.035
PPSAALPTSPTG | 0.6911 ± 0.0015
PPPPLPPALFPP | 0.589 ± 0.013

Sequence | protein stability index
PRGLFLTRLRPC | 0.64 ± 0.058
ASAWHGLVFPPF | 0.779 ± 0.01
DREKGGLREADQ | 0.669 ± 0.035
GNGVNLEYDKRK | 0.721 ± 0.059
GGVRSLLWAVVW | 0.583 ± 0.009
PRQACPLPLPHV | 0.655 ± 0.029
RSVGMFSCRPVW | 0.698 ± 0.017
KRYRKGGRPMRA | 0.66 ± 0.06
PSWPRRSSPLAI | 0.73 ± 0.013
QYSLGLGQVQVI | 0.662 ± 0.033
PTLWRSSVRHVW | 0.714 ± 0.066
LRGSDYIVIGGS | 0.656 ± 0.025
PPSSLPRLQCSP | 0.674 ± 0.054
KLPPATPNSRPP | 0.714 ± 0.2
GQVATAGDIRVR | 0.69065 ± 0.00026
GGEGGRALGVGR | 0.673 ± 0.028
GGGERCEGVWVE | 0.579 ± 0.01
ASCQRCGSVLDL | 0.697 ± 0.014
WGRGAVGPLLGV | 0.632 ± 0.016
KRGRAIVVQLWV | 0.578 ± 0.021
